This test has as its target GST-CaM (glutathione S-transferase-tagged calmodulin) (UniProt P0DP23 1-149). As to the kind of experiment: pull-down.

Here are results for one molecule from article PMC10134200 (Cell Insight, 2023).

B1: His-P3CP (His-tagged TRPP3 C-terminal peptide I560-K660) (domain or fragment)
chain: INDTYSEVKEELAGQKDELQLSDLLKQGYNKTLLRLRLRKERVSDVQKVLQGGEQEIQFEDFTNTLRELGHAEHEITELTATFTKFDRDGNRILDEKEQEK
For the molecule B1, the binding result is “binds”.
